In patent US20130102009A1, “SIRTUIN ACTIVATORS AND ACTIVATION ASSAYS” (priority 2010, published 2013):

Experiments:
Assay in all cases: Steady-state kinetic parameters for SIRT1 substrates (PNC1-GDH-coupled assay)
Type in all cases: biochemical, human
Conditions in all cases: other: 25° C., pH 7.5, [NAD+]o = 2 mM, [SIRT1]o 50-1,000 nM
[1] = substrate: CC(=O)NCCCC[C@H](NC(=O)[C@H](CCCCN)NC(=O)[C@H](Cc1c[nH]cn1)NC(=O)[C@H](CCCNC(=N)N)NC(C)=O)C(=O)N[C@@H](Cc1ccccc1)C(N)=O
Method: (§1) All peptides were prepared by BioPeptide (San Diego, Calif.) and shown to be at least 95% pure by analytical HPLC analysis. Bovine glutamate dehydrogenase (GDH), α-ketoglutarate, NADH and NAD^+ were from Sigma Chemical Company. Full-length, human SIRT1 and the truncated version used for biophysical studies SIRT1(183-664) were prepared as described previously, and shown to have equivalent kinetic properties (Milne et al. (2007) Nature 450, 712-716). The nicotinamidase PNC1 was prepared as described by Denu and colleagues (Smith et al. (2009) Anal Biochem 394, 101-109).
(§2) To determine the interaction of STACs with SIRT1 two kinetic methods were employed. One, which was used for TAMRA-peptide, desTAMRA-peptide, des(biotin,TAMRA)-peptide, and p53-20 mer, used a previously described mass spectroscopic method for detection of peptide reaction products (Milne et al. (2007) Nature 450, 712-716). The other, used with peptides of general structure Ac-Arg-His-Lys-Lys^Ac-X, used a continuous, enzyme-coupled method reported previously (Smith et al. (2009) Anal Biochem 394, 101-109), in which the SRT1 product nicotinamide is first converted into nicotinic acid and ammonia by the action of PNC1, and the ammonia then used by GDH to convert α-ketoglutarate into glutamate. This reaction occurs with oxidation of NADH to NAD^+ which is accompanied by a change in absorbance at 340 nm (Δε340=−6,200 M^−1 cm^−1).
(§3) The kinetic experiments used to characterize activators were run on a Perkin Elmer Lambda 25 spectrophotometer equipped with a water-jacketed, eight-cell changer maintained at 25° C. In a typical kinetic experiment, all components of the reaction solution except SIRT1 were added to a 1 mL cuvette and allowed to reach thermal equilibrium. Final concentrations of the coupling system components were: 1 μM PNC1, 0.23 mM NADH, 3.4 mM α-ketoglutarate, and 20 U/mL bovine GDH. This solution also contained peptide substrate, NAD^.0., and activator, at concentrations indicated in the text. The final DMSO concentration was kept constant at 1%, and the buffer used in these experiments was 50 mM HEPES, 150 mM NaCl, pH 7.5. While the system was reaching thermal equilibrium, the absorbance was monitored to provide an accurate estimate of the background rate, which was subtracted from the reaction rate after the addition of SIRT1.
(§4) The parameters reported in this table were all determined using the PNC1-GDH-coupled assay. Kinetic parameters for the four 20 mers were also estimated using the mass spectroscopy-based assay first described by Milne et al. ((2007) Nature 450, 712-716) and agree with those reported in Table 3.

[2] = substrate: CC(=O)NCCCC[C@H](NC(=O)[C@H](CCCCN)NC(=O)[C@H](Cc1c[nH]cn1)NC(=O)[C@H](CCCNC(=N)N)NC(C)=O)C(=O)N[C@@H](C)C(N)=O
Method: as §1, §2, §3, §4

[3] = substrate: CC(=O)NCCCC[C@H](NC(=O)[C@H](CCCCN)NC(=O)[C@H](Cc1c[nH]cn1)NC(=O)[C@H](CCCNC(=N)N)NC(C)=O)C(=O)N[C@@H](Cc1c[nH]c2ccccc12)C(N)=O
Method: as §1, §2, §3, §4

[4] = substrate: CC(=O)NCCCC[C@H](NC(=O)[C@H](CCCCN)NC(=O)[C@H](Cc1c[nH]cn1)NC(=O)[C@H](CCCNC(=N)N)NC(C)=O)C(=O)Nc1ccc2c(C)cc(=O)oc2c1
Method: as §1, §2, §3, §4

[5] = substrate: CC(=O)NCCCC[C@H](NC(=O)[C@H](CCCCN)NC(=O)[C@H](Cc1c[nH]cn1)NC(=O)[C@H](CCCNC(=N)N)NC(C)=O)C(N)=O
Method: as §1, §2, §3, §4

[6] = substrate: CCCC[C@H](NC(=O)[C@H](CCCCNC(C)=O)NC(=O)[C@H](CO)NC(=O)[C@H](Cc1c[nH]cn1)NC(=O)[C@H](CO)NC(=O)[C@H](CO)NC(=O)[C@@H](NC(=O)[C@H](CO)NC(=O)[C@H](CCC(N)=O)NC(=O)CNC(=O)[C@H](CCCCNC(=O)CCCC[C@@H]1SC[C@@H]2NC(=O)N[C@@H]21)NC(=O)[C@H](CCC(=O)O)NC(=O)[C@H](CCC(=O)O)NC(C)=O)[C@@H](C)O)C(=O)N[C@@H](CO)C(=O)N[C@H](C(=O)N[C@@H](CCC(=O)O)C(=O)NCC(=O)N[C@@H](CCCCN)C(=O)N[C@@H](CCC(=O)O)C(=O)N[C@@H](CCC(=O)O)C(N)=O)[C@@H](C)O
Method: as §1, §2, §3, §4

B1: SIRT1 (Homo sapiens) (protein)
chain: MADEAALALQPGGSPSAAGADREAASSPAGEPLRKRPRRDGPGLERSPGEPGGAAPEREVPAAARGCPGAAAAALWREAEAEAAAAGGEQEAQATAAAGEGDNGPGLQGPSREPPLADNLYDEDDDDEGEEEEEAAAAAIGYRDNLLFGDEIITNGFHSCESDEEDRASHASSSDWTPRPRIGPYTFVQQHLMIGTDPRTILKDLLPETIPPPELDDMTLWQIVINILSEPPKRKKRKDINTIEDAVKLLQECKKIIVLTGAGVSVSCGIPDFRSRDGIYARLAVDFPDLPDPQAMFDIEYFRKDPRPFFKFAKEIYPGQFQPSLCHKFIALSDKEGKLLRNYTQNIDTLEQVAGIQRIIQCHGSFATASCLICKYKVDCEAVRGDIFNQVVPRCPRCPADEPLAIMKPEIVFFGENLPEQFHRAMKYDKDEVDLLIVIGSSLKVRPVALIPSSIPHEVPQILINREPLPHLHFDVELLGDCDVIINELCHRLGGEYAKLCCNPVKLSEITEKPPRTQKELAYLSELPPTPLHVSEDSSSPERTSPPDSSVIVTLLDQAAKSNDDLDVSESKGCMEEKPQEVQTSRNVESIAEQMENPDLKNVGSSTGEKNERTSVAGTVRKCWPNRVAKEQISRRLDGNQYLFLPPNRYIFHGAEVYSDSEDDVLSSSSCGSNSDSGTCQSPSLEEPMEDESEIEEFYNGLEDEPDVPERAGGAGFGTDGDDQEAINEAISVKQEVTDMNYPSNKS
- Km [1]: 7.1 µM
- Km [2]: 13 µM
- Km [3]: 4.0 µM
- Km [4]: 110 µM
- Km [5]: 23 µM
- Km [6]: 33 µM
